Biological target: T1, Core_INII-es_KEEK
T1 chain: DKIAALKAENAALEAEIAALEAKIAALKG
Experiment: two-hybrid library CCmax;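 note: natural log of median RNA to DNA barcode read ratio; higher means stronger binding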
Settings: mean of both orientations

interaction score: 2.32
B1: Core_INII-es_EKKE (peptide)
chain: DEIAALEAKNAALKAKIAALKAEIAALEG
